How the values were obtained:
[1] = target: T1, human c-Met on cells (NCI-H441, NCI-H292, U87-MG) (human, UniProt P08581 25-1390); assay: NCI-H441 cell binding, anti-His fluorescence
T1 construct: Endogenous c-Met of human tumor cell lines; also called hepatocyte growth factor receptor
Experimental: Purified FN3 domains (50 μL/well; 0 to 1000 nM) were added to the cells for 1 hour at 4° C. in duplicate plates. Supernatant was removed and cells were washed three times with FACS stain buffer (150 μL/well, BD Biosciences, cat #554657). Cells were incubated with biotinylated-anti HIS antibody (diluted 1:160 in FACS stain buffer, 50 μL/well, R&D Systems, cat # BAM050) for 30 minutes at 4° C. Cells were washed three times with FACS stain buffer (150 μL/well), after which wells were incubated with anti mouse IgG1-Alexa 488 conjugated antibody (diluted 1:80 in FACS stain buffer, 50 μL/well, Life Technologies, cat # A21121) for 30 minutes at 4° C. Cells were washed three times with FACS stain buffer (150 μL/well) and left in FACS stain buffer (50 μL/well). Total fluorescence was determined using an Acumen eX3 reader. Data were plotted as raw fluorescence signal against the logarithm of the FN3 domain molar concentration and fitted to a sigmoidal dose-response curve with variable slope using GraphPad Prism 4 (GraphPad Software) to calculate EC₅₀ values.

[2] = target: T2, recombinant c-Met extracellular domain (human, UniProt P08581 16-932); assay: SPR kinetic analysis as in Example 2
T2 construct: Construct used for SPR is not described further (may be the Fc chimera, as the protocol captures on anti-human Fc)

[3] = target: T1, human c-Met on cells (NCI-H441, …); assay: cell-based or functional assay
[4] = target: T3, EGFR (form used in the assay not stated) (human, UniProt P00533 25-645, limits assumed); assay: ELISA, NEM conjugate, 10 nM
[5] = target: T3, EGFR (form used in the assay not stated); assay: ELISA, NEM conjugate, 500 nM
[6] = target: T3, EGFR (form used in the assay not stated); assay: ELISA, NEM conjugate, 100 nM

Binder | EC50 [1] [nM] | Kd [2] [nM] | Inhibition of proliferation of U87-MG cells IC50 [3] [nM] | pMet inhibition in H441 cells IC50 [3] [nM] | binding relative to P54AR4-83v2 parent [4] [ratio] | binding relative to P54AR4-83v2 parent [5] [ratio] | binding relative to P54AR4-83v2 parent [6] [ratio]
P114AR7P92-H5 (designed binder, not shown: small tags and cut ends) LPAPKNLVVSRVTEDSARLSWTAPDAAFDSFWIRYLEFLLGGEAIVLTVPGSERSYDLTGLKPGTEYVVQIMGVKGGTVSPPLSAIFTT | 22 | 11.6 | 672 | 766 | – | – | –
P114AR7P93-D11 (designed binder, not shown: small tags and cut ends) LPAPKNLVVSRVTEDSARLSWTAPDAAFDSFWIRYFEFLGSGEAIVLTVPGSERSYDLTGLKPGTEYVVGINGVKGGYISYPLSAIFTT | 2.3 | – | 14.4 | 16 | – | – | –
P114AR7P95-D4 (designed binder, not shown: small tags and cut ends) LPAPKNLVVSRVTEDSARLSWTAPDAAFDSFWIRYFEFLGSGEAIVLTVPGSERSYDLTGLKPGTEYVVQILGVKGGYISIPLSAIFTT | 1.4 | 0.4 | 19.4 | 19.5 | – | – | –
P114AR7P95-E3 (designed binder, not shown: small tags and cut ends) LPAPKNLVVSRVTEDSARLSWTAPDAAFDSFWIRYFEFLGSGEAIVLTVPGSERSYDLTGLKPGTEYVVQIMGVKGGTVSPPLSAIFTT | 3.2 | – | 209 | 205 | – | – | –
P54AR4-83v2 V49C, NEM conjugate (designed binder, not shown: small tags and cut ends, N-ethyl maleimide (NEM) on Cys 49) LPAPKNLVVSEVTEDSARLSWDDPWAFYESFLIQYQESEKVGEAIVLTCPGSERSYDLTGLKPGTEYTVSIYGVHNVYKDTNMRGLPLSAIFTT | – | – | – | – | 0.96 | 0.98 | 1.01
P54AR4-83v2 Y78C, NEM conjugate (designed binder, not shown: small tags and cut ends, N-ethyl maleimide (NEM) on Cys 78) LPAPKNLVVSEVTEDSARLSWDDPWAFYESFLIQYQESEKVGEAIVLTVPGSERSYDLTGLKPGTEYTVSIYGVHNVCKDTNMRGLPLSAIFTT | – | – | – | – | 0.31 | 0.68 | 0.63
P54AR4-83v2 Y28C, NEM conjugate (designed binder, not shown: small tags and cut ends, N-ethyl maleimide (NEM) on Cys 28) LPAPKNLVVSEVTEDSARLSWDDPWAFCESFLIQYQESEKVGEAIVLTVPGSERSYDLTGLKPGTEYTVSIYGVHNVYKDTNMRGLPLSAIFTT | – | – | – | – | 0 | 0.09 | 0.01
P54AR4-83v2 W25C, NEM conjugate (designed binder, not shown: small tags and cut ends, N-ethyl maleimide (NEM) on Cys 25) LPAPKNLVVSEVTEDSARLSWDDPCAFYESFLIQYQESEKVGEAIVLTVPGSERSYDLTGLKPGTEYTVSIYGVHNVYKDTNMRGLPLSAIFTT | – | – | – | – | 0.38 | 0.7 | 0.64
P54AR4-83v2 V74C, NEM conjugate (designed binder, not shown: small tags and cut ends, N-ethyl maleimide (NEM) on Cys 74) LPAPKNLVVSEVTEDSARLSWDDPWAFYESFLIQYQESEKVGEAIVLTVPGSERSYDLTGLKPGTEYTVSIYGCHNVYKDTNMRGLPLSAIFTT | – | – | – | – | 0.76 | 0.95 | 1.01
P54AR4-83v2 Y72C, NEM conjugate (designed binder, not shown: small tags and cut ends, N-ethyl maleimide (NEM) on Cys 72) LPAPKNLVVSEVTEDSARLSWDDPWAFYESFLIQYQESEKVGEAIVLTVPGSERSYDLTGLKPGTEYTVSICGVHNVYKDTNMRGLPLSAIFTT | – | – | – | – | 0.93 | 0.93 | 1
P54AR4-83v2 V77C, NEM conjugate (designed binder, not shown: small tags and cut ends, N-ethyl maleimide (NEM) on Cys 77) LPAPKNLVVSEVTEDSARLSWDDPWAFYESFLIQYQESEKVGEAIVLTVPGSERSYDLTGLKPGTEYTVSIYGVHNCYKDTNMRGLPLSAIFTT | – | – | – | – | 0.03 | 0.03 | 0
